From publication doi:10.1101/2021.10.18.464900 (bioRxiv, 2021)

Legend:
[1] = molecular target: T1, SARS-CoV-2 S protein trimer (Trimer) (SARS-CoV-2, Wuhan/reference, stabilised); assay: SPR
[2] = molecular target: T2, soluble RBD of SARS-CoV-2 S protein (REF / Wuhan-1 variant) (SARS-CoV-2, UniProt P0DTC2); assay: SPR
[3] = molecular target: RBD (Wuhan) expressed on the surface of HEK-293T cells (SARS-CoV-2, Wuhan, UniProt P0DTC2); assay: flow cytometry on cells
[4] = molecular target: T1, SARS-CoV-2 S protein trimer (Trimer); assay: cryo-EM structure
[5] = molecular target: RBD of SARS-CoV-2 S protein, Beta (SA) variant (SARS-CoV-2, Beta (B.1.351, SA), strain); assay: ELISA
[6] = molecular target: T2, soluble RBD of SARS-CoV-2 S protein …; assay: ELISA
[7] = molecular target: RBD of SARS-CoV-2 S protein, Alpha (UK) variant (SARS-CoV-2, Alpha (B.1.1.7, UK) variant, strain); assay: ELISA

B1: IMM20190 (antibody, V domains shown)
VH: EVQLVESGGGLVQPGGSLRLSCSASGFTVSSNYMSWVRQAPRKGLEWVSVIYAGGSTFYADSVKGRFTISRDNSKNTLLLQMNSLRAEDTAVYYCARDRGGYLDYWGQGTLVTVSS
VL: DIQMTQSPSSLSASVGDRVTITCRASQGISNYLAWYQQKPGKVPKLLIYAASTLQSGVPSRFSGSGSGTDFTLTISSLQPEDVATYYCQKYNSAPGLTFGGGTKVEIK
With B1 the kon [1] was > 29500 M⁻¹ s⁻¹, the binding result [2] was “binds” and the binding result [3] was “binds”.

B2: IMM20190 Fab (Fab, V domains shown)
VH: EVQLVESGGGLVQPGGSLRLSCSASGFTVSSNYMSWVRQAPRKGLEWVSVIYAGGSTFYADSVKGRFTISRDNSKNTLLLQMNSLRAEDTAVYYCARDRGGYLDYWGQGTLVTVSS
VL: DIQMTQSPSSLSASVGDRVTITCRASQGISNYLAWYQQKPGKVPKLLIYAASTLQSGVPSRFSGSGSGTDFTLTISSLQPEDVATYYCQKYNSAPGLTFGGGTKVEIK
With B2 the “stoichiometry N” value [4] was 3 Fab:Trimer.

B3: IMM20184 Fab (Fab, V domains shown)
VH: EVQLVESGGGLVQPGGSLRLSCSASGFTFSSFWMSWVRQAPGKGLEWVATIREDGSEKYYVDSVKGRFSISRDNAKNSLYLQMNSLRAEDTAVYYCARSKWLRGSFDYWGQGTLVTVSS
VL: NFMLTQPHSVSESPGKTVTISCTRRSGSIASNYVQWYQQRPGSAPTTVIYEDNQRPSGVPDRFSGSIDSSSNSASLTISGLQTEDEADYYCQSYDSSNPPGASWVFGGGTKLTVL
In the case of B3, the “stoichiometry N” value [4] is reported as 3 Fab:Trimer.

B4: IMM20184 (antibody, V domains shown)
VH: EVQLVESGGGLVQPGGSLRLSCSASGFTFSSFWMSWVRQAPGKGLEWVATIREDGSEKYYVDSVKGRFSISRDNAKNSLYLQMNSLRAEDTAVYYCARSKWLRGSFDYWGQGTLVTVSS
VL: NFMLTQPHSVSESPGKTVTISCTRRSGSIASNYVQWYQQRPGSAPTTVIYEDNQRPSGVPDRFSGSIDSSSNSASLTISGLQTEDEADYYCQSYDSSNPPGASWVFGGGTKLTVL
With B4 the koff [1] was 0.00023 s⁻¹, the kon [1] was > 29500 M⁻¹ s⁻¹ and the “fold faster on-rate to RBD than to Trimer” value [2] was 17 fold. It also gave a koff [2] of 0.0013 s⁻¹.

B5: IMM20253 (antibody, V domains shown)
VH: QVQLVESGGGVVQPGRSLRLSCTASGFTFSTYGMHWVRQAPGKGLEWVAVISYDGSSKHYAESVKGRFTISRDNSNNTLYLQMNRLRAEDTAVYYCARDGQPPGWGNYFDYWGQGTLVTVAS
VL: SYVLTQPPSVSVAPGKTARITCGGNGIGSKSVYWYQQKPGQAPEVVVYDDSDRPSGIPERFSGSNSGNTATLTISRVEAGDEADYYCQVWDSSSDPWVFGGGTKLTVL
In the case of B5, the kon [1] is reported as > 29500 M⁻¹ s⁻¹, the “fold faster on-rate to RBD than to Trimer” value [2] is reported as 19 fold and the “percent inhibition of ACE2 binding” value [5] is reported as ≤ 40%. The “percent inhibition of ACE2 binding” value [6] was ≤ 40% and the “percent inhibition of ACE2 binding” value [7] was ≤ 40%.

B6: IMM20253 Fab (Fab, V domains shown)
VH: QVQLVESGGGVVQPGRSLRLSCTASGFTFSTYGMHWVRQAPGKGLEWVAVISYDGSSKHYAESVKGRFTISRDNSNNTLYLQMNRLRAEDTAVYYCARDGQPPGWGNYFDYWGQGTLVTVAS
VL: SYVLTQPPSVSVAPGKTARITCGGNGIGSKSVYWYQQKPGQAPEVVVYDDSDRPSGIPERFSGSNSGNTATLTISRVEAGDEADYYCQVWDSSSDPWVFGGGTKLTVL
For B6, the “stoichiometry N” value [4] was 1 Fab:Trimer.
